Results published in PMC8809517, “Cofactor-independent RNA editing by a synthetic S-type PPR protein”.

T1: GFP-9S library array, motif 4 ND N98S;D124P (synthetic construct, N98S;D124P)
T1 chain: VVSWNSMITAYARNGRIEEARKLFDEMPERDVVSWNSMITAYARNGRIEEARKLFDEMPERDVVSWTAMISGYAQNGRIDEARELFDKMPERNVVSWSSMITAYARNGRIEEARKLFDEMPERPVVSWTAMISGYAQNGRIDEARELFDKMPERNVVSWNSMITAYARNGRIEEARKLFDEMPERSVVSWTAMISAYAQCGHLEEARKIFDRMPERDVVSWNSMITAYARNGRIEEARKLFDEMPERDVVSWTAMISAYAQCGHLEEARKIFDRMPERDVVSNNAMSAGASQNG

T2: GFP-9S library array, motif 4 ND N98T;D124F (synthetic construct, N98T;D124F)
T2 chain: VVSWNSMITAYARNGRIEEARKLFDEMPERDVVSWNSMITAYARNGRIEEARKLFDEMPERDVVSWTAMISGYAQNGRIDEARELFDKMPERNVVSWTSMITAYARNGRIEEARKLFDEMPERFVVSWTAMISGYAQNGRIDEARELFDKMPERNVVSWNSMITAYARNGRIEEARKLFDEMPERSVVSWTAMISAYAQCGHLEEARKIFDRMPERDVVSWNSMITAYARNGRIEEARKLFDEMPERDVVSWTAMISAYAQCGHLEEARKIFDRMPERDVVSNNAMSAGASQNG

T3: GFP-9S library array, motif 4 ND N98A;D124V (synthetic construct, N98A;D124V)
T3 chain: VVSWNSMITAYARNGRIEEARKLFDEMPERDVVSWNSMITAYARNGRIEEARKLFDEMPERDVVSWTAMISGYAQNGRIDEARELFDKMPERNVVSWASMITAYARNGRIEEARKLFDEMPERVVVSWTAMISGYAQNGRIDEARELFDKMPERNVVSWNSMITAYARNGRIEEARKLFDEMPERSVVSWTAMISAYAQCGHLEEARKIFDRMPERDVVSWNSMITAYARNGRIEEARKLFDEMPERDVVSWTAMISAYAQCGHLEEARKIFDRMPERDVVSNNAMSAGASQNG

T4: GFP-9S library array, motif 4 ND N98K;D124I (synthetic construct, N98K;D124I)
T4 chain: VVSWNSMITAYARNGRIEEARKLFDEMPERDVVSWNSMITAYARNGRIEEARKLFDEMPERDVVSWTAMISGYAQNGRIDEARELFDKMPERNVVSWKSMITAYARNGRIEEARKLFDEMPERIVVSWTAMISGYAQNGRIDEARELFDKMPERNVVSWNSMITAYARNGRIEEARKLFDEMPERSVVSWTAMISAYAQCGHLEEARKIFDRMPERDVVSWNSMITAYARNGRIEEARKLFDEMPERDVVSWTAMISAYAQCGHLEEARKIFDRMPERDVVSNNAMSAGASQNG

T5: GFP-9S library array, motif 4 ND N98C;D124N (synthetic construct, N98C;D124N)
T5 chain: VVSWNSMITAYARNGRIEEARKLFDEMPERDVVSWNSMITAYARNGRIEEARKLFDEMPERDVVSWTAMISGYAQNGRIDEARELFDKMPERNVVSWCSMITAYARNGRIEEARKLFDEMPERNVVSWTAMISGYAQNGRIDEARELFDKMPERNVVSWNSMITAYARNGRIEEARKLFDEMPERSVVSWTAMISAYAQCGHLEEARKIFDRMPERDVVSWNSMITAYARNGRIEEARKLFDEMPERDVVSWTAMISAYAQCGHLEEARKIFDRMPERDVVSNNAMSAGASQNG


Tests used:
Assay in all cases: high-throughput RNA pulldown from lysate on Ni-NTA beads; HRP: 50 mM Tris pH 8, 150 mM NaCl, 1 mM beta-mercaptoethanol, 50 ug/ml BSA, 3 ug/ml yeast RNA, 0.5% heparin; ITC and FP: Tris pH 8, 200 mM KCl, 5% glycerol; MST: 50 mM Tris pH 8, 200 mM NaCl, 1 mM DTT, BSA, heparin, 0.05% Tween 20
Conditions in all cases: tags: N-terminal His-eGFP
[1] = biological target: T1, GFP-9S library array, motif 4 ND …
[2] = biological target: T2, GFP-9S library array, motif 4 ND …
[3] = biological target: T3, GFP-9S library array, motif 4 ND …
[4] = biological target: T4, GFP-9S library array, motif 4 ND …
[5] = biological target: T5, GFP-9S library array, motif 4 ND …

| Binder | Kd ([1]; label: 5' Cy5) | Kd ([2]; label: 5' Cy5) | Kd ([3]; label: 5' Cy5) | Kd ([4]; label: 5' Cy5) | Kd ([5]; label: 5' Cy5) | Kd ([1]; label: 5' IRDye 800CW) | Kd ([2]; label: 5' IRDye 800CW) | Kd ([3]; label: 5' IRDye 800CW) | Kd ([4]; label: 5' IRDye 800CW) | Kd ([5]; label: 5' IRDye 800CW) |
| --- | --- | --- | --- | --- | --- | --- | --- | --- | --- | --- |
| AUUAGACGUGA (ssRNA) [Cy5-rpoA-G] | 121 nM | 160 nM | 124 nM | 167 nM | 346 nM |  |  |  |  |  |
| AUUACACGUGA (ssRNA) [Cy5-rpoA] | 122 nM | 241 nM | 91.2 nM | 130 nM | 213 nM |  |  |  |  |  |
| AUUAUACGUGA (ssRNA) [IR-rpoA-U] |  |  |  |  |  | 253 nM | 637 nM | 152 nM | 252 nM | 152 nM |
| AUUAAACGUGA (ssRNA) [IR-rpoA-A] |  |  |  |  |  | 224 nM | 173 nM | 497 nM | 560 nM | 45 nM |
